For two substances, percent bound and percent bound (D1/D2 and F/E/G added together) results are on record in paper PMC10470402.

The assay deals with S. pombe HT-Gemin2 (S. pombe) (UniProt P0CU08). The assay is described as follows: pull-down.
S. pombe HT-Gemin2 (S. pombe), sequence (P0CU08 whole entry): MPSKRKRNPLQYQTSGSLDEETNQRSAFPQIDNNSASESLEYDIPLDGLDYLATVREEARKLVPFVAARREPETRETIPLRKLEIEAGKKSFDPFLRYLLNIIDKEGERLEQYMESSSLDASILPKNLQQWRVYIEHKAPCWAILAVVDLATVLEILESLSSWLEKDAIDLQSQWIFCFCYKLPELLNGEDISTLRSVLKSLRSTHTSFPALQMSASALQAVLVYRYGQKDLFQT

The substance “S. pombe SmD1/SmD2 subcomplex, HT-tag removed (from UniProt O42661 1-117; O14036 1-115)” showed a percent bound of 4.1%; a percent bound (D1/D2 and F/E/G added together) of 15.1%.

“S. pombe SmF/SmE/SmG subcomplex, HT-tag removed (from UniProt O59734 1-78; Q9USZ3 1-84; O74966 1-77)” gave a percent bound of 7.4%; a percent bound (D1/D2 and F/E/G added together) of 9.2%.
